The values below come from patent US20060212953, “Tr2, tr4, tr2/tr4 double knockouts and uses thereof” (published 2006).

The target of the data set is T1, TR4 (testicular orphan nuclear receptor 4, NR2C2) (UniProt P49116 SEQ:1-596).
T1 sequence: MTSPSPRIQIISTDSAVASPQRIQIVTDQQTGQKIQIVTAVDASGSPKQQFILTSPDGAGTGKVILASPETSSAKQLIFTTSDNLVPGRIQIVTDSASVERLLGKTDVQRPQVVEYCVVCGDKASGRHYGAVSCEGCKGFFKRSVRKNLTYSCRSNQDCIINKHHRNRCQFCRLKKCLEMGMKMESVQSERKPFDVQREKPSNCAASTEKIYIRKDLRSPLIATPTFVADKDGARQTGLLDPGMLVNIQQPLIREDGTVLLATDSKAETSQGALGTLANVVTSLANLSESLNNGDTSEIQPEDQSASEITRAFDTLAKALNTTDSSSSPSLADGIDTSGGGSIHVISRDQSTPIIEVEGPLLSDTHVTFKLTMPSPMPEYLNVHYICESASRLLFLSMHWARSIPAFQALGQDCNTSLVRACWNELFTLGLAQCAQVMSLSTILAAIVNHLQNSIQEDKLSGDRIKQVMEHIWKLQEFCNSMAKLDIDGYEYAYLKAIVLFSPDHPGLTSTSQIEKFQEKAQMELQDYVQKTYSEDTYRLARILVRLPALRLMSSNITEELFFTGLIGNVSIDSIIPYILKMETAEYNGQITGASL
Nature of the data set: EMSA; supershifted by monoclonal anti-TR4 antibody #15; 10 mM HEPES pH 7.9, 100 mM KCl, 2.5 mM MgCl2, 0.5 mM EDTA, 1 mM DTT, room temperature 15 min. To be noted: tags: rabbit reticulocyte lysate (Promega); label: 32P 5' end. Here is the method:
TR4 proteins were synthesized in rabbit reticulocyte lysate (Promega), according to the manufacturer's instructions. The oligonucleotide probe (SEQ ID NO:46 nNOS-NHR, bp-198 to -211, 5′-[…]-3′) was end-labeled with [γ]³²P in a T4 polynucleotide kinase reaction (New England Biolabs). The EMSA reaction was performed with 2 μl TR4-containing lysate in an EMSA buffer (10 mM HEPES, pH 7.9, 6% (v/v) glycerol, 2% (v/v) Ficoll, 100 mM KCl, 0.5 mM EDTA, 2.5 mM MgCl₂, and 1 mM dithiothreitol). The reaction mixtures were incubated for 15 min. at room temperature, in the presence or absence of a mouse monoclonal anti-TR4 antibody (#15). The protein-DNA complexes were analyzed on a 5% native polyacrylamide gel. The results were visualized by autoradiography (Storm PhosphorImaging System, Amersham Pharmacia).
In general terms: In EMSA bound probe runs differently from free probe, usually more slowly.

B1: nNOS-NHR probe (dsDNA)
DNA 1: CTGGTCAACCTTGACTTCCTT
DNA 2: AAGGAAGTCAAGGTTGACCAG
Regarding B1, the binding result is “binds”.
